{"source": "paper PMC6594588", "key": {"[1]": {"target": "T1, Flp(Y343F) (S. cerevisiae (2-micron plasmid)) (UniProt P03870)", "T1 sequence": "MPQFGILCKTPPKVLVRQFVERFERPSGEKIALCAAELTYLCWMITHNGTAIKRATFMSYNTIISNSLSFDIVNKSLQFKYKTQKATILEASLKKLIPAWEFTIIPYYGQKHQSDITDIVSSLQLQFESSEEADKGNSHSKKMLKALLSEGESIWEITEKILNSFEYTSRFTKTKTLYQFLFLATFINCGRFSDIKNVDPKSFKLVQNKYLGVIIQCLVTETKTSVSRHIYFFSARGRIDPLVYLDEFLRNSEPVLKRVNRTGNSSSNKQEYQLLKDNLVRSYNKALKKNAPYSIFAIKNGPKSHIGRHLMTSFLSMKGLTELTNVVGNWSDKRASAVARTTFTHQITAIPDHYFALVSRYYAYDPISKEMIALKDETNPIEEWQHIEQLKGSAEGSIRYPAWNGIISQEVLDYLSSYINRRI"}, "[2]": {"target": "Flp(Y343F)-SUMO (S. cerevisiae (2-micron plasmid) | not stated) (UniProt P03870)"}}, "data": [{"substance": "Flp(R191A)-SUMO (from UniProt P03870 1-423; Q12306 1-96) (enzyme)", "values": [{"measurement": "strand cleavage complementation on separately pre-bound half-sites; cleavage yield against that of Flp(R191A) with Flp(Y343F)", "setting": "[1]", "result": 1.5, "unit": "fold"}, {"measurement": "strand cleavage complementation on separately pre-bound half-sites; cleavage yield against that of Flp(R191A)-SUMO with Flp(Y343F)-SUMO", "setting": "[1]", "result": 1.5, "unit": "fold"}, {"measurement": "strand cleavage complementation on separately pre-bound half-sites; cleavage yield against that of Flp(R191A) with Flp(Y343F)-SUMO", "setting": "[2]", "result": 1.6, "unit": "fold"}]}]}
